Measured values from patent US20240025993A1 (Novartis, published 2024).
Positions count from the first letter of the chain named. In names and notes the source's numbering stands.

B1: Anti-CD3 human IgG1 antibody, wild type Fc (antibody)
heavy: not shown
light: QAVVTQEPSLTVSPGGTVTLTCRSSTGAVTTSNYANWVQQKPGQAPRGLIGGTNKRAPWTPARFSGSLLGDKAALTLSGAQPEDEAEYFCALWYSNLWVFGGGTKLTVLGQPKAAPSVTLFPPSSEELQANKATLVCLISDFYPGAVTVAWKADSSPVKAGVETTTPSKQSNNKYAASSYLSLTPEQWKSHRSYSCQVTHEGSTVEKTVAPTECS
notes: also called WT; WT IgG1
B2: Anti-CD3 human IgG1 antibody, DANAPA Fc variant (D265A/N297A/P329A) (antibody)
heavy: EVQLVESGGGLVQPGGSLKLSCAASGFTFNTYAMNWVRQASGKGLEWVGRIRSKYNNYATYYADSVKDRFTISRDDSKSTLYLQMNSLKTEDTAVYYCVRHGNFGNSYVSWFAYWGQGTLVTVSSASTKGPSVFPLAPSSKSTSGGTAALGCLVKDYFPEPVTVSWNSGALTSGVHTFPAVLQSSGLYSLSSVVTVPSSSLGTQTYICNVNHKPSNTKVDKRVEPKSCDKTHTCPPCPAPELLGGPSVFLFPPKPKDTLMISRTPEVTCVVVAVSHEDPEVKFNWYVDGVEVHNAKTKPREEQYASTYRVVSVLTVLHQDWLNGKEYKCKVSNKALAAPIEKTISKAKGQPREPQVYTLPPSRDELTKNQVSLTCLVKGFYPSDIAVEWESNGQPENNYKTTPPVLDSDGSFFLYSKLTVDKSRWQQGNVFSCSVMHEALHNHYTQKSLSLSPGK
light: B1 light
notes: Variant made by PCR mutagenesis of the anti-CD3 WT IgG1 heavy chain; also called DANAPA-IgG1; FCV-9
B3: Anti-CD3 human IgG1 antibody, LALAPA Fc variant (L234A/L235A/P329A) (antibody)
heavy: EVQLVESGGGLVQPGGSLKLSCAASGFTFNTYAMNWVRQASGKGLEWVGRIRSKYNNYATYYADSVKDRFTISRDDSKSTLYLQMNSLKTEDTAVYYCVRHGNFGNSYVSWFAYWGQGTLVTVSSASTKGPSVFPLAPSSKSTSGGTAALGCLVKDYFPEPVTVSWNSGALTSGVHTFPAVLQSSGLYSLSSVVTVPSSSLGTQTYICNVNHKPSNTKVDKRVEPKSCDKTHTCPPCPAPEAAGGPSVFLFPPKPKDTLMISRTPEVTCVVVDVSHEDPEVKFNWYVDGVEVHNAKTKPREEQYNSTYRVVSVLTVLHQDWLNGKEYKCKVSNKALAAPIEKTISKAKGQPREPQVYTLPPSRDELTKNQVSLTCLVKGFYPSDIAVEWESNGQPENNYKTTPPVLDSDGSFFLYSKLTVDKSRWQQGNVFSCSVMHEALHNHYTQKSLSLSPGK
light: B1 light
notes: also called LALAPA-IgG1; FCV-1
B4: Anti-CD3 human IgG1 antibody, DAPA Fc variant (D265A/P329A) (antibody)
heavy: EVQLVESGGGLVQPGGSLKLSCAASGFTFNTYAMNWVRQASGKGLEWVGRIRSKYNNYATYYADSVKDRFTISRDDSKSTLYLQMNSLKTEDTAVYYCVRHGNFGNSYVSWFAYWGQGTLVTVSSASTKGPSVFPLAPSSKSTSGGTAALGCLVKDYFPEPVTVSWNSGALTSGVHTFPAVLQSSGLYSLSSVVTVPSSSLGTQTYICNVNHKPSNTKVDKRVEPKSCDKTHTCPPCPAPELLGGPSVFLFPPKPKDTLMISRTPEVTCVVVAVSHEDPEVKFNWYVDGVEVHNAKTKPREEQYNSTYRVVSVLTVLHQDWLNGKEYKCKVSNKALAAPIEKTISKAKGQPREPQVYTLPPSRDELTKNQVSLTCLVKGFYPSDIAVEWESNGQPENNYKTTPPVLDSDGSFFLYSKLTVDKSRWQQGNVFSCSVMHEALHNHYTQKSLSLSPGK
light: B1 light
notes: also called DAPA-IgG1; FCV-8
B5: Anti-CD3 human IgG1 antibody, LALASKPA Fc variant (L234A/L235A/S267K/P329A) (antibody)
heavy: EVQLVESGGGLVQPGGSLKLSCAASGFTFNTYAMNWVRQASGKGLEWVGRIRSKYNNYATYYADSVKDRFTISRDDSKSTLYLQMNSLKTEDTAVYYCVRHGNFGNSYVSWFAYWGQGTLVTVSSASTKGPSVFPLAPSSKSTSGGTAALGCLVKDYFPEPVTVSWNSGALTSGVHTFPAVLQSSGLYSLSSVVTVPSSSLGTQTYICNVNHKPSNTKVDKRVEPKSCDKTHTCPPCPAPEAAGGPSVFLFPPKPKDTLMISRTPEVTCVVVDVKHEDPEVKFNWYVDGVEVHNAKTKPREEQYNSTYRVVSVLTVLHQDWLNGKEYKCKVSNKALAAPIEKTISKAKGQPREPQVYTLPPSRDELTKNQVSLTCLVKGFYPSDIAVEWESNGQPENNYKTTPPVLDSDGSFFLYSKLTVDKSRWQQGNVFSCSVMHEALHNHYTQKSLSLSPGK
light: B1 light
notes: also called FCV-4
B6: Anti-CD3 human IgG1 antibody, LALAPG Fc variant (L234A/L235A/P329G) (antibody)
heavy: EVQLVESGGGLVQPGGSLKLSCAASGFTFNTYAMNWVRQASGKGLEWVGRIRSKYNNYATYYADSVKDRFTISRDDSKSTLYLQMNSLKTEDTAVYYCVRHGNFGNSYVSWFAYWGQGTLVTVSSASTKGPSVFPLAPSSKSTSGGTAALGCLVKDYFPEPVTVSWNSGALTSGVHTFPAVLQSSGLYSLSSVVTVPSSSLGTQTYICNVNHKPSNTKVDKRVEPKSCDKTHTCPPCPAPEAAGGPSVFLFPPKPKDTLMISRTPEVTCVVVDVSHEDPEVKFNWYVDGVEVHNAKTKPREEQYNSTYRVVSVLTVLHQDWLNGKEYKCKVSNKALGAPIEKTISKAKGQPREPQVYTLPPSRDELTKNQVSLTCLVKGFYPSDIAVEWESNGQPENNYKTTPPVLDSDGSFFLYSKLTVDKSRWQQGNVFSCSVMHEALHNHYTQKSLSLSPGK
light: B1 light
notes: also called LALAPG-IgG1; FCV-3
B7: Anti-CD3 human IgG1 antibody, DAPASK Fc variant (D265A/P329A/S267K) (antibody)
heavy: B2 heavy with S275K, A305N
light: B1 light
notes: also called DAPASK-IgG1; FCV-5
B8: Anti-CD3 human IgG1 antibody, LALAGA Fc variant (L234A/L235A/G237A) (antibody)
heavy: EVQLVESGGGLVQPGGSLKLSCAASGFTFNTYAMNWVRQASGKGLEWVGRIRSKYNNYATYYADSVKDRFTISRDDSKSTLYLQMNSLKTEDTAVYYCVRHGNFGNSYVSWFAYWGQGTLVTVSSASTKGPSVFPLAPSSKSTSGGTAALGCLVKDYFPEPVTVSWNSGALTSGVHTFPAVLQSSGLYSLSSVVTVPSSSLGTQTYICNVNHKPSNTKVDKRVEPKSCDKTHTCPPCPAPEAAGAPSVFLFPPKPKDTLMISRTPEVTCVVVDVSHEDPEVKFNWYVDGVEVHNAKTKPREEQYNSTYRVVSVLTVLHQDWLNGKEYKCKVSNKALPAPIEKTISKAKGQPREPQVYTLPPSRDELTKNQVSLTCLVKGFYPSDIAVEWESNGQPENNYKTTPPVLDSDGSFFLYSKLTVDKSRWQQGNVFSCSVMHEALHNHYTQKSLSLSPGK
light: B1 light
notes: also called LALAGA-IgG1; FCV-2
B9: Anti-CD3 human IgG1 antibody, GADAPA Fc variant (G237A/D265A/P329A) (antibody)
heavy: B2 heavy with G245A, A305N
light: B1 light
notes: also called GADAPA-IgG1; FCV-6
B10: Anti-CD3 human IgG1 antibody, GADAPASK Fc variant (G237A/D265A/P329A/S267K) (antibody)
heavy: B2 heavy with G245A, S275K, A305N
light: B1 light
notes: also called FCV-7
B11: Anti-CD3 human IgG1 antibody, R214K allotype (antibody)
heavy: not shown
light: B1 light
notes: also called WT allotype; WT allotype R214K
B12: Anti-CD19-CD3 / CD58 trispecific antibody, DANAPA IgG1 Fc (Table 33) (other)
heavy: QVQLVQSGAEVKKPGASVKVSCKASGYTFTTYWIQWVRQAPGQRLEWMGAVYPGDADTRYTQKFQGRVTLTADRSASTAYMELSSLRSEDTAVYYCGRDAGLEYYALDYWGQGTLVTVSSASTKGPSVFPLAPSSKSTSGGTAALGCLVKDYFPEPVTVSWNSGALTSGVHTFPAVLQSSGLYSLSSVVTVPSSSLGTQTYICNVNHKPSNTKVDKRVEPKSCGGGGSGGGGSEVQLVESGGGLVQPGGSLKLSCAASGFTFNTYAMNWVRQASGKGLEWVGRIRSKYNNYATYYADSVKDRFTISRDDSKSTLYLQMNSLKTEDTAVYYCVRHGNFGNSYVSWFAYWGQGTLVTVSSGGGGSGGGGSGGGGSGGGGSQAVVTQEPSLTVSPGGTVTLTCRSSTGAVTTSNYANWVQQKPGQAPRGLIGGTNKRAPWTPARFSGSLLGDKAALTLSGAQPEDEAEYFCALWYSNLWVFGGGTKLTVLGGGGSDKTHTCPPCPAPELLGGPSVFLFPPKPKDTLMISRTPEVTCVVVAVSHEDPEVKFNWYVDGVEVHNAKTKPREEQYASTYRVVSVLTVLHQDWLNGKEYKCKVSNKALAAPIEKTISKAKGQPREPQVCTLPPSREEMTKNQVSLSCAVKGFYPSDIAVEWESNGQPENNYKTTPPVLDSDGSFFLVSKLTVDKSRWQQGNVFSCSVMHEALHNHYTQKSLSLSPGK
chain: SQQIYGVVYGNVTFHVPSNVPLKEVLWKKQKDKVAELENSEFRAFSSFKNRVYLDTVSGSLTIYNLTSSDEDEYEMESPNITDTMKFFLYVLESGGGGSDKTHTCPPCPAPELLGGPSVFLFPPKPKDTLMISRTPEVTCVVVAVSHEDPEVKFNWYVDGVEVHNAKTKPREEQYASTYRVVSVLTVLHQDWLNGKEYKCKVSNKALAAPIEKTISKAKGQPREPQVYTLPPCREEMTKNQVSLWCLVKGFYPSDIAVEWESNGQPENNYKTTPPVLDSDGSFFLYSKLTVDKSRWQQGNVFSCSVMHEALHNHYTQKSLSLSPGK
light: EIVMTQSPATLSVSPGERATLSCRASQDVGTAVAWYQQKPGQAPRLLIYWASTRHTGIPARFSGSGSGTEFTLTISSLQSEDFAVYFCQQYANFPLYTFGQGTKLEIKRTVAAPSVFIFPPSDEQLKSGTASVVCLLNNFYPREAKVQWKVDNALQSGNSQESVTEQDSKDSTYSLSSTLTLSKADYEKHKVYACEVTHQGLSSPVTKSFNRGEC
B13: Anti-CD19-CD3 / CD58 trispecific antibody, LALASKPA IgG1 Fc (Table 33) (other)
heavy: B12 heavy with L506A, L507A, A537D, S539K, A569N
chain: B12 chain with L113A, L114A, A144D, S146K, A176N
light: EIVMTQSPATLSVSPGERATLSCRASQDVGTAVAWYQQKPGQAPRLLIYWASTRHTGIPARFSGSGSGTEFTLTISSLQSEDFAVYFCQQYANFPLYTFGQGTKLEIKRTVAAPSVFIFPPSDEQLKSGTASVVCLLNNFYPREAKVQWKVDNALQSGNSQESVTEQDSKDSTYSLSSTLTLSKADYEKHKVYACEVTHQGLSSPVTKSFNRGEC
B14: Anti-CD19-CD3 / CD58 trispecific antibody, GADAPASK IgG1 Fc (Table 33) (other)
heavy: B12 heavy with G509A, S539K, A569N
chain: B12 chain with G116A, S146K, A176N
light: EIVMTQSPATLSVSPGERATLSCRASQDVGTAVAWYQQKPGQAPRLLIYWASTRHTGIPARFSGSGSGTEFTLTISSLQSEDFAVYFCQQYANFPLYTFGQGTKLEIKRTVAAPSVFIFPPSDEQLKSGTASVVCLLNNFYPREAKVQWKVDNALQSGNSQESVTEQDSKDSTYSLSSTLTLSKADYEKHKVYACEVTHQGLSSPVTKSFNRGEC
B15: NEG258 (antibody, V domains shown)
VH: QVQLVQSGAEVKKPGASVKVSCKASGYTFTTYWIQWVRQAPGQRLEWMGAVYPGDADTRYTQKFQGRVTLTADRSASTAYMELSSLRSEDTAVYYCGRDAGLEYYALDYWGQGTLVTVSS
VL: EIVMTQSPATLSVSPGERATLSCRASQDVGTAVAWYQQKPGQAPRLLIYWASTRHTGIPARFSGSGSGTEFTLTISSLQSEDFAVYFCQQYANFPLYTFGQGTKLEIK
notes: also called CD19 antibody NEG258; anti-CD19 antibody NEG258

The binders below were run against T1, human C1q (human, UniProt P02745 23-245; P02746 28-253; P02747 29-245) (assay: SPR (Biacore T200), antibody amine-coupled on CM5 chip, C1q as analyte).
T1 construct: also called hC1q
T1 sequence (P02745 23-245 limits assumed, chain 1 of 3): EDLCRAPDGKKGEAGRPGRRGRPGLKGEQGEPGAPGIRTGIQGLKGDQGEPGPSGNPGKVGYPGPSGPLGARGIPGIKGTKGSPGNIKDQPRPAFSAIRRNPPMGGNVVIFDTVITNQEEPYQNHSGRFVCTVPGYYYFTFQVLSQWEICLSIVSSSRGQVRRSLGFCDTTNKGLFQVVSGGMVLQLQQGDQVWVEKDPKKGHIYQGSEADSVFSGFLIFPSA
T1 sequence (P02746 28-253 limits assumed, chain 2 of 3): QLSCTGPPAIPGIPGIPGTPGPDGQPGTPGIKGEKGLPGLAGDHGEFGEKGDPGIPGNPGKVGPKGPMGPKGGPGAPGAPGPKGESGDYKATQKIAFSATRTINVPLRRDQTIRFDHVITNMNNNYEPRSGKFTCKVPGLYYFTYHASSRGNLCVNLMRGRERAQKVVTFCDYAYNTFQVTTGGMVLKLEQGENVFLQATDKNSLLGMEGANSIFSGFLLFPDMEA
T1 sequence (P02747 29-245 limits assumed, chain 3 of 3): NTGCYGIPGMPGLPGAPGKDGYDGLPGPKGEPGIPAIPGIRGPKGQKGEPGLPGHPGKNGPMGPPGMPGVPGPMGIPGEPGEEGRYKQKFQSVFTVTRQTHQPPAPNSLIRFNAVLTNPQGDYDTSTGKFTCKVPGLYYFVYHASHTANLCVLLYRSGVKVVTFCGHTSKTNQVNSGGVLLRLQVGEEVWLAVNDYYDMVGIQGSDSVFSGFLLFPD
Description: (§1) Binding to human C1q was evaluated. All SPR buffers were prepared using deionized water. The samples were prepared in running buffer PBS pH 7.4 with 0.005% Tween-20. SPR measurements were measured on a Biacore T200 (GE-Healthcare Life Sciences) controlled by Biacore T200 control software version 2.0.1. Surface plasmon resonance was conducted using a Biacore T200 to assess binding affinity of antibody IgG1 WT and variants to human Fc receptors, including FcγR1A, and FcγR3A (V158) and human C1q.
(§2) The antibodies were covalently immobilized on a CM5 sensor chip whereas Fc gamma receptors or human C1q served as analytes in solution (FIG. 38). For Fc gamma receptors binding evaluation (method 1), antibodies were diluted in 10 mM sodium acetate pH 4 and immobilized at a density of approximately 950 resonance units (RU's) on the CM5 sensor chip applying a standard amine coupling procedure. Flow cell 1 was blank immobilized to serve as a reference. The kinetic binding data were collected by subsequent injections of 1:2 dilution series of the human Fc gamma receptors on all flow cells at a flow rate of 30 μl/min and at a temperature of 25° C. The Fc gamma receptors were diluted in the running buffer at concentrations ranging from 0.2 nM to 1000 nM (e.g. FcγR1A: 0.2 to 100 nM, FcγR3A V158: 1.95 to 1000 nM). The chip surface was regenerated using 20 mM glycine pH 2.0 solution after each measuring cycle. For human C1q binding evaluation (method 2), antibodies were diluted in 10 mM sodium acetate pH 4 and immobilized at a density of approximately 7000 resonance units (RU's) on the CM5 sensor chip applying a standard amine coupling procedure. Flow cell 1 was blank immobilized to serve as a reference. The kinetic binding data were collected by subsequent injections of 1:2 dilution series of the human C1q on all flow cells at a flow rate of 30 μl/min and at a temperature of 25° C. The human C1q was diluted in the running buffer at concentrations ranging from 0.49 nM to 250 nM. The chip surface was regenerated using 50 mM NaOH solution after each measuring cycle. Zero concentration samples (blank runs) were measured for both methods to allow double-referencing during data evaluation.
(§3) Data were evaluated using the Biacore T200 evaluation software.

| Binder | Maximum response at 250 nM hC1q (RU) |
| --- | --- |
| B1 | 680 |
| B2 | 29 |
| B3 | 270 |
| B4 | 85 |
| B5 | 95 |
| B6 | 245 |
| B7 | 86 |
| B8 | 335 |
| B9 | 203 |
| B10 | 168 |
| B11 | 640 |

The binders below were run against T2, human Fc gamma receptor 1A (human, UniProt P12314 16-288, limits assumed) (assay: SPR (Biacore T200), antibody amine-coupled on CM5 chip, human FcγRIA as analyte; maximum response (RU)).
T2 construct: also called hFcgammaRIA; hFcγRIA
T2 sequence (P12314 16-288 limits assumed): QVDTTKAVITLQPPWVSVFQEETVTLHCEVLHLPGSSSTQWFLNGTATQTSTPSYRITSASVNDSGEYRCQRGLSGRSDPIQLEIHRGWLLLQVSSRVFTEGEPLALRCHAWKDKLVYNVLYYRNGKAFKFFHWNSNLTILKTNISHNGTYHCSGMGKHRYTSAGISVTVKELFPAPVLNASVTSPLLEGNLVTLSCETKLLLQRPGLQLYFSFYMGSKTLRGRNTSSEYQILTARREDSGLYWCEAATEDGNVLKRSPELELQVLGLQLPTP
Description: Surface plasmon resonance was conducted using a Biacore T200 to assess binding affinity of antibody WT and variants to human FcγR1A.
The antibodies were covalently immobilized on a CM5 sensor chip whereas Fc gamma receptor 1A served as analyte in solution (FIG. 38). Antibodies were diluted in 10 mM sodium acetate pH 4 and immobilized at a density of approximately 950 resonance units (RU) on the CM5 sensor chip applying a standard amine coupling procedure. Flow cell 1 was blank immobilized to serve as a reference. The kinetic binding data were collected by subsequent injections of 1:2 dilution series of the human Fc gamma receptor 1A on all flow cells at a flow rate of 30 μl/min and at a temperature of 25° C. […] The chip surface was regenerated using 20 mM glycine pH 2.0 solution after each measuring cycle. Zero concentration samples (blank runs) were measured to allow double-referencing during data evaluation.
Data were evaluated using the Biacore T200 evaluation software. The raw data were double referenced, i.e. the response of the measuring flow cell was corrected for the response of the reference flow cell, and in a second step the response of a blank injection was subtracted. Then the sensorgrams were fitted by applying a 1:1 kinetic binding model to calculate dissociation equilibrium constants. In addition, the maximum response reached during the experiment was monitored. Maximum response describes the binding capacity of the surface in terms of the response at saturation.

| Binder | binding result |
| --- | --- |
| B12 | no binding (tested: 25 nM) |
| B13 | no binding (tested: 25 nM) |
| B14 | no binding (tested: 25 nM) |

The binders below were run against T3, human CD19 (human, UniProt P15391 20-556) (assay: summary sentence of the examples; no method at this place).
T3 construct: whole, on cells; also called huCD19; hCD19
T3 sequence (looked up): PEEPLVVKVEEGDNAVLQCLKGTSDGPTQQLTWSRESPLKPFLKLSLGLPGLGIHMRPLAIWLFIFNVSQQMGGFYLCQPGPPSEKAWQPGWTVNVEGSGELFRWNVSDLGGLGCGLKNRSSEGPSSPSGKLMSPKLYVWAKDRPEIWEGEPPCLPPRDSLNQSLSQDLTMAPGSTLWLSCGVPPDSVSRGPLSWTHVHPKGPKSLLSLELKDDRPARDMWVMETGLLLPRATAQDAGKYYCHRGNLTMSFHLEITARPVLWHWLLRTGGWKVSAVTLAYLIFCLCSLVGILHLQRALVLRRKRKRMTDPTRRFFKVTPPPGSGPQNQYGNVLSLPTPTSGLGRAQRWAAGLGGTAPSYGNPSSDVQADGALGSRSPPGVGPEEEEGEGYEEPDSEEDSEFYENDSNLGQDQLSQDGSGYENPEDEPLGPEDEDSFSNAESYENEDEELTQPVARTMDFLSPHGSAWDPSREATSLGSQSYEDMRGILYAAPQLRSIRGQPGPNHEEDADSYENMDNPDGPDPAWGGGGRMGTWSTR

| Binder | binding result |
| --- | --- |
| B15 | binds |

The binders below were run against T2, human Fc gamma receptor 1A (assay: SPR (Biacore T200), antibody amine-coupled on CM5 chip, receptor as analyte).
Description: as §1, §2, §3

| Binder | Maximum response at 100 nM hFcgammaRIA (RU) |
| --- | --- |
| B1 | 193 |
| B3 | 26 |
| B4 | 63 |
| B11 | 193 |

The binders below were run against T4, human Fc gamma receptor 3A, V158 variant (human, UniProt P08637 17-208) in the same assay as above.
T4 construct: also called hFcgammaRIIIA V158; FcγR3A (V158)
T4 sequence (P08637 other isoform, or with tags, fused parts or gaps mutant): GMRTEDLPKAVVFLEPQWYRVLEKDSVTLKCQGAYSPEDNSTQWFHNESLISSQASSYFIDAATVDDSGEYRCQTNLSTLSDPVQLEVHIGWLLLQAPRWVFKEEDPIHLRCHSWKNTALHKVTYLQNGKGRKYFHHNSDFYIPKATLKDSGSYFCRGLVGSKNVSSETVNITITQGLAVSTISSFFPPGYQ
Description: as §1, §2, §3

| Binder | Maximum response at 1000 nM hFcgammaRIIIA V158 (RU) |
| --- | --- |
| B1 | 79 |
| B2 | 31 |
| B3 | 19 |
| B4 | 15 |
| B5 | 20 |
| B6 | 33 |
| B7 | 15 |
| B8 | 25 |
| B9 | 9 |
| B10 | 12 |
| B11 | 72 |
